Assay results: patent US12072338B2, “Pharmaceutical peptides for the treatment of inflammatory diseases” (PROTAGONISTS LTD., priority 2007, dated 2024)

Legend:
MCP-1 = target: T1, MCP-1 (Homo sapiens, UniProt P13500); test: Micro-array analysis of chemokine binding peptides: MCP-1
T1 construct: purchased 300-04
Procedure: (§1) (1) Printing: Chemokine (CK) solution (in water) was serially diluted with Print Reagent (GenTel BioSurfaces USA) to final concentrations of 50 μg and 25 μg/ml. BSA/BSA-Biotin control solutions (in water) were diluted with Print Reagent to 100 μg/ml. Amplified stock of M13 phage control (M13KEgIII Cloning Vector, New England Biolabs, Cat.No.E8101S) was stored in Tris Buffered Saline (TBS; pH7.5, 4° C.) and diluted with Print Reagent to the working titre (10^8 pfu/μl). An automated spotting robot (16 pin print tool, 0.4 mm head; BioRobotics, UK) was used to print the CK/BSA control/M13 control, 5 repeats per sample (CK 25 μg/ml and 50 μg/ml; BSA 100 μg/ml; M13 20 μl), on PATH Protein Microarray Slides (GenTel, Prod.No. 2-1005/-1025) at […], and 50-70% relative humidity. Printed micro-array slides were stored at Room Temperature (RT) or 4° C. for at least 24 h before use.
(§2) (2) Blocking: Block Buffer (500 μl/partition; PATHblock, GenTel, Prod.No. 2-1014) was applied to the slide for 1 hour at room temp (RT). After removal of Block Buffer, the slide was air dried for 25 minutes;
(§3) (3) Phage Presented Peptide Binding: Amplified recombinant phage stock was stored in TBS and diluted with Wash Buffer to working titer (10^7 pfu/μl). Recombinant phage suspension (300 μl) was applied per partition and incubated at RT for 1 hour with gentle agitation.
(§4) (4) First Washing: The slides were washed twice with Wash Buffer 300 μl/partition).
(§5) (5) Primary Antibody (Ab) Labeling: The slides were incubated with the Primary Ab (1 mg/ml diluted ×2500 (Wash Reagent), 300 μl; Mouse Anti-M13 monoclonal Ab; Amersham Biosciences, UK; Product Code 27-9420-01) for 45 minutes at RT.
(§6) (6) Second Washing: The slides were washed twice with Wash Buffer (300 μl/partition).
(§7) (7) Secondary Ab Labeling: The slides were incubated with Secondary Ab (1.5 mg/ml diluted ×5000 (Wash Reagent), 300 μl; Cy3-conjugated AffiniPure Goat Anti-Mouse IgG; Jackson ImmunoReserch Labs, USA; Product Code 115-165-062).
(§8) (8) Third Washing: The slides were washed twice with Wash Buffer (300 μl/partition).
(§9) (9) Rinse: the slides were rinsed twice with Rinse Buffer (PATHrinse, GenTel, Prod.No. 2-1018) then dried well.
(§10) (10) Scanning: The peptide-bound, labeled slide was scanned (Laser Intensity 80%, Gain 80%, Resolution 10 μm) with a ScanArray Life Scanner (Packard BioChip Technologies, USA).
(§11) (11) Analysis: Quantitative analysis of micro-array was performed by the SpotReader program of Niles Scientific (USA) and presented as Relative Fluorescence (RF) as a function of CK concentration. Micro-array readout (Cy3 fluorescence) was quantified to determine the relative binding affinities of a CBP for the CKs and by inference, the specificity of the CBP for binding to a CK.

IL-8 = test: Micro-array analysis of chemokine binding peptides: IL-8
Chain of IL-8 (P10145 28-99 limits assumed): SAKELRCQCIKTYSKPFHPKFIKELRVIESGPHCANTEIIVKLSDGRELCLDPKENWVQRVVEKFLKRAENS
Procedure: as §1, §2, §3, §4, §5, §6, §7, §8, §9, §10, §11

TECK = target: T2, TECK (Homo sapiens, UniProt O15444); test: Micro-array analysis of chemokine binding peptides: TECK
T2 construct: purchased 300-45
T2 sequence (O15444 24-150): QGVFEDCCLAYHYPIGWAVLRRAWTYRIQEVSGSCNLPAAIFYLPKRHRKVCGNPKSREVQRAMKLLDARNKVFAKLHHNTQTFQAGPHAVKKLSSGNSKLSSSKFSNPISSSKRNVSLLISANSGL
Procedure: as §1, §2, §3, §4, §5, §6, §7, §8, §9, §10, §11

GRO-β = target: T3, GRO-β (Homo sapiens, UniProt P19875); test: Micro-array analysis of chemokine binding peptides: GRO-β
T3 construct: purchased 300-39
T3 sequence (P19875 35-107): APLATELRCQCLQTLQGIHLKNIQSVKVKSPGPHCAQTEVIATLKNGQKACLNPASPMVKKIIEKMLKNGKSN
Procedure: as §1, §2, §3, §4, §5, §6, §7, §8, §9, §10, §11

MCP-2 = target: T4, MCP-2 (Homo sapiens, UniProt P80075); test: Micro-array analysis of chemokine binding peptides: MCP-2
T4 construct: purchased 300-15
T4 sequence (P80075 24-99): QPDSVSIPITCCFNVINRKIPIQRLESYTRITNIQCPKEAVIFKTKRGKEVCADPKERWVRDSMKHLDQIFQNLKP
Procedure: as §1, §2, §3, §4, §5, §6, §7, §8, §9, §10, §11

Mig = target: T5, Mig (Homo sapiens, UniProt Q07325); test: Micro-array analysis of chemokine binding peptides: Mig; conditions: limit = start of the upper 75% of that peptide's response range
T5 construct: purchased 300-26
T5 sequence (Q07325 23-125): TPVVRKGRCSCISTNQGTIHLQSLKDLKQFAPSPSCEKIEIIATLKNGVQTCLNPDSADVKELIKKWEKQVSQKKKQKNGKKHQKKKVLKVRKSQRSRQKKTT
Procedure: as §1, §2, §3, §4, §5, §6, §7, §8, §9, §10, §11

RANTES = target: T6, RANTES (Homo sapiens, UniProt P13501); test: Micro-array analysis of chemokine binding peptides: RANTES
T6 construct: purchased 300-06
T6 sequence (P13501 24-91): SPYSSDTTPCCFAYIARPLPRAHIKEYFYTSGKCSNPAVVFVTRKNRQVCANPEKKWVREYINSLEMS
Procedure: as §1, §2, §3, §4, §5, §6, §7, §8, §9, §10, §11

Eotaxin 2 = target: T7, Eotaxin 2 (Homo sapiens, UniProt O00175); test: Micro-array analysis of chemokine binding peptides: Eotaxin 2
T7 construct: purchased 300-33
T7 sequence (O00175 27-119): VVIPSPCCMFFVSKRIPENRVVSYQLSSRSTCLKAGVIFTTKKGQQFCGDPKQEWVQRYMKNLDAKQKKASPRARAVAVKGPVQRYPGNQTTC
Procedure: as §1, §2, §3, §4, §5, §6, §7, §8, §9, §10, §11

I-TAC = target: T8, I-TAC (Homo sapiens, UniProt O14625); test: Micro-array analysis of chemokine binding peptides: I-TAC; conditions: limit = start of the upper 75% of that peptide's response range
T8 construct: purchased 300-46
T8 sequence (O14625 22-94): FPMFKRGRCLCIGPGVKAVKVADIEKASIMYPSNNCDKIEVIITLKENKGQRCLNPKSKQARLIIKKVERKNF
Procedure: as §1, §2, §3, §4, §5, §6, §7, §8, §9, §10, §11

MCP-4 = target: T9, MCP-4 (Homo sapiens, UniProt Q99616); test: Micro-array analysis of chemokine binding peptides: MCP-4
T9 construct: purchased 300-24
T9 sequence (Q99616 17-98): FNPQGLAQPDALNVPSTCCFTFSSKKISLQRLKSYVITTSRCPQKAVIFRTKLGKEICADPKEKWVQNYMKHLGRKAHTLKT
Procedure: as §1, §2, §3, §4, §5, §6, §7, §8, §9, §10, §11

Eotaxin 3 = target: T10, Eotaxin 3 (Homo sapiens, UniProt Q9Y258); test: Micro-array analysis of chemokine binding peptides: Eotaxin 3
T10 construct: purchased 300-48
T10 sequence (Q9Y258 24-94): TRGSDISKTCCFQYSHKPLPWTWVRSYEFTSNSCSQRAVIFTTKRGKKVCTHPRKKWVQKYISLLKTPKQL
Procedure: as §1, §2, §3, §4, §5, §6, §7, §8, §9, §10, §11

Eotaxin = target: T11, Eotaxin (Homo sapiens, UniProt P51671); test: Micro-array analysis of chemokine binding peptides: Eotaxin
T11 construct: purchased 300-21
T11 sequence (P51671 24-97): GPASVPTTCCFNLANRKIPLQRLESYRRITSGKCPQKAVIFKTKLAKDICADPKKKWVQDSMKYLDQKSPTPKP
Procedure: as §1, §2, §3, §4, §5, §6, §7, §8, §9, §10, §11

Lymphotactin = target: T12, Lymphotactin (Homo sapiens, UniProt P47992); test: Micro-array analysis of chemokine binding peptides: Lymphotactin
T12 construct: purchased 300-20
T12 sequence (P47992 22-114): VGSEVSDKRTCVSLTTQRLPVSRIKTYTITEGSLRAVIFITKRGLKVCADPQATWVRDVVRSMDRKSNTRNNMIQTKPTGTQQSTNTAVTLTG
Procedure: as §1, §2, §3, §4, §5, §6, §7, §8, §9, §10, §11

BCA-1 = target: T13, BCA-1 (Homo sapiens, UniProt O43927); test: Micro-array analysis of chemokine binding peptides: BCA-1
T13 construct: purchased 300-47
T13 sequence (O43927 23-109): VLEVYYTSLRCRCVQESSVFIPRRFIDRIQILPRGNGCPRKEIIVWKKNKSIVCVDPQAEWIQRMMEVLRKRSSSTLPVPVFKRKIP
Procedure: as §1, §2, §3, §4, §5, §6, §7, §8, §9, §10, §11

SDF1-α = target: T14, SDF1-α (Homo sapiens, UniProt P48061); test: Micro-array analysis of chemokine binding peptides: SDF1-α
T14 construct: purchased 300-28a
T14 sequence (P48061 22-89 limits assumed): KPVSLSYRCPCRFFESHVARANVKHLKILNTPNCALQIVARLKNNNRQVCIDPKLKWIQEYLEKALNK
Procedure: as §1, §2, §3, §4, §5, §6, §7, §8, §9, §10, §11

SDF1-β = target: T15, SDF1-β (Homo sapiens, UniProt P48061); test: Micro-array analysis of chemokine binding peptides: SDF1-β
T15 construct: purchased 300-28b
T15 sequence (P48061 22-93): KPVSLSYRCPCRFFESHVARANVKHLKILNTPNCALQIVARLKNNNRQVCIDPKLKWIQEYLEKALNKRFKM
Procedure: as §1, §2, §3, §4, §5, §6, §7, §8, §9, §10, §11

Fractalkine = target: T16, Fractalkine (Homo sapiens, UniProt P78423); test: Micro-array analysis of chemokine binding peptides: Fractalkine
T16 construct: purchased 300-31
T16 sequence (P78423 25-100 limits assumed): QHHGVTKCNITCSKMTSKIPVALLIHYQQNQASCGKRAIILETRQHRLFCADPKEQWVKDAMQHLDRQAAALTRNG
Procedure: as §1, §2, §3, §4, §5, §6, §7, §8, §9, §10, §11

Exodus-2 = target: T17, Exodus-2 (Homo sapiens, UniProt O00585); test: Micro-array analysis of chemokine binding peptides: Exodus-2
T17 construct: purchased 300-35
T17 sequence (O00585 24-134): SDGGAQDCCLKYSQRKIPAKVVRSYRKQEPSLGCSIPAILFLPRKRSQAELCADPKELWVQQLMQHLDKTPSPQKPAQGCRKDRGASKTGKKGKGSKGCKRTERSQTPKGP
Procedure: as §1, §2, §3, §4, §5, §6, §7, §8, §9, §10, §11

I-309 = target: T18, I-309 (Homo sapiens, UniProt P22362); test: Micro-array analysis of chemokine binding peptides: I-309; conditions: limit = start of the upper 75% of that peptide's response range
T18 construct: purchased 300-37
T18 sequence (P22362 24-96): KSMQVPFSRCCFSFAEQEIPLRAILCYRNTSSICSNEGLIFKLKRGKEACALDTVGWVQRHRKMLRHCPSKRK
Procedure: as §1, §2, §3, §4, §5, §6, §7, §8, §9, §10, §11

[1] = limit = start of the upper 75% of that peptide's response range

T1 sequence (P13500 24-99): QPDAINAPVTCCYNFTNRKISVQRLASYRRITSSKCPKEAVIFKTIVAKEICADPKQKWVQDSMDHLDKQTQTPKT

DRYLNIVHAT [Ph-p18]
binding to MCP-1, stated in words (MCP-1): bound | binding to IL-8, stated in words (IL-8): bound | binding to TECK, stated in words (TECK): bound | binding to GRO-β, stated in words (GRO-β): bound | binding to MCP-2, stated in words (MCP-2): bound | binding to Mig with relatively high affinity (Relative Fluorescence Units) (Mig): > 9,000 RFU | binding to RANTES, stated in words (RANTES): bound | binding to Eotaxin 2, stated in words (Eotaxin 2): bound | binding to I-TAC with relatively high affinity (Relative Fluorescence Units) (I-TAC): > 9,000 RFU | binding to MCP-4, stated in words (MCP-4): bound | binding to Eotaxin 3, stated in words (Eotaxin 3): bound | binding to Eotaxin, stated in words (Eotaxin): bound | binding to Lymphotactin, stated in words (Lymphotactin): bound | binding to BCA-1, stated in words (BCA-1): bound

DYDY (listed as Homo sapiens) [Ph-p32]
binding to SDF1-α, stated in words (SDF1-α): bound | binding to SDF1-β, stated in words (SDF1-β): bound | binding to IL-8 with relatively high affinity (Relative Fluorescence Units) (IL-8; [1]): > 10,000 RFU | binding to TECK, stated in words (TECK): bound | binding to GRO-β with relatively high affinity (Relative Fluorescence Units) (GRO-β; [1]): > 10,000 RFU | binding to MCP-2 with relatively high affinity (Relative Fluorescence Units) (MCP-2; [1]): > 10,000 RFU | binding to Mig with relatively high affinity (Relative Fluorescence Units) (Mig): > 10,000 RFU | binding to RANTES with relatively high affinity (Relative Fluorescence Units) (RANTES; [1]): > 10,000 RFU | binding to Eotaxin 2 with relatively high affinity (Relative Fluorescence Units) (Eotaxin 2; [1]): > 10,000 RFU | binding to Fractalkine, stated in words (Fractalkine): bound | binding to I-TAC with relatively high affinity (Relative Fluorescence Units) (I-TAC): > 10,000 RFU | binding to MCP-4 with relatively high affinity (Relative Fluorescence Units) (MCP-4; [1]): > 10,000 RFU | binding to Eotaxin 3 with relatively high affinity (Relative Fluorescence Units) (Eotaxin 3; [1]): > 10,000 RFU | binding to Exodus-2, stated in words (Exodus-2): bound | binding to I-309 with relatively high affinity (Relative Fluorescence Units) (I-309): > 10,000 RFU | binding to Eotaxin with relatively high affinity (Relative Fluorescence Units) (Eotaxin; [1]): > 10,000 RFU | binding to Lymphotactin, stated in words (Lymphotactin): bound | binding to BCA-1, stated in words (BCA-1): bound
